Experimental data reported in IntAct's records for PubMed 15965486.

Target: vps35_mouse Vps35 (UniProt Q9EQH3)

Substance	effect of a mutation on the interaction
Vacuolar protein sorting-associated protein 29 (Mus musculus) (from UniProt Q9QZ88-1) I91S	disrupting interaction strength
Vacuolar protein sorting-associated protein 29 (Mus musculus) (from UniProt Q9QZ88-1) N39D	decreasing interaction strength
Vacuolar protein sorting-associated protein 29 (Mus musculus) (from UniProt Q9QZ88-1) V90D	decreasing interaction strength
